Measurements taken from the RNAGym collection of RNA variant scans (doi:10.7554/elife.90254).

B1: LINE1-full (parent)
chain: UACGUAGGUGGUUUUCCCCUGAUAGUGCUAAGGGGGCCUGGAAGUUUGGACUGGGCAGAGCUCAACACAGCGUGGCAAAGUGGCUGUGGCUAGACUGCCUCUCUGGAUUCCUCGUCACUCAGCAGGGCAUCUCUGAGAGAAAUGCC

Variants of: B1
Assay: self-cleavage, relative activity (ratio to wild type); higher = more cleavage; in vitro, sequencing; the parent is a self-cleaving ribozyme

Q: Which self-cleavage does the source give for UACGUAGGUGGUUUUCCCCUGAUAGUGCUAAGGGGGCCUGGAAGUUUGUACUGGGCAGAGCUCAACACAGCGUGGCAAAGUGGCUGUGGCUAGACUGCCUCUCUGGAUUCCUCGUCACUCAGCAGGGCAUCUCCGAGAGAAAUGCC [G49U U134C] here?
A: Its self-cleavage is 1.63.

Q: With UACGUAGGUGGUUUUCCCCUGAUAGUGCUAAGGGGGCCUGGAAGUUUGGACUGGGCAGAGCUCAACACAGCGUGGUAAAGUGGCUGUGGCUAGACUGCCUCUCUGGAUUCCUCGUCACUCAGCAGGGCAUCUCUGGGAGAAAUGCC [C76U A136G] as the variant, how does the self-cleavage read?
A: The self-cleavage was 1.75.

Q: With UACGUAGGUGGUUUUCCCCUGAUAGUGCUAAGGGGGCCUGGAAGUUUGGACUGGGCAGAGCUCAACACAGCGUGGCAAAGUGGCUGUGGAUAGACUGCGUCUCUGGAUUCCUCGUCACUCAGCAGGGCAUCUCUGAGAGAAAUGCC [C90A C99G] as the variant, how does the self-cleavage read?
A: Its self-cleavage is 0.02.

Q: Which self-cleavage does the source give for UACGUAGGUGGGUUUCCCCUGAUAGUGCUAAGGGGGCCUGGAAGUUUGGACUGGGCAGAGCUCAACACAGCGUGGCAAAGUGGCUGUGGCUAGACUGCCUCUCUGGAUUCCUCGUCACUCAGCAGGGCAUCUCUGAGAGAAAUGCC [U12G] here?
A: The self-cleavage was 1.13.

Q: For UACGUAGGUGGUUUUCCCCUGAUAGUGCUAAGGGGGCCUGGAAGUUAGGACUGGGCAGAGCUCAACACAGCGUGGCAAAGUGGCUGUGGCUAGACUGCCUCUCUGGAUUCCUCGUCACUCAGCAGGGCAUCACUGAGAGAAAUGCC [U47A U132A], which self-cleavage is on record?
A: Its self-cleavage is 1.34.

Q: Which self-cleavage does the source give for UACGUAGGUGGUUUUCCCCUGAUAGUGCUAAGGGGGCCUGGAAGUAUGGACUGGGCAGAGCUCGACACAGCGUGGCAAAGUGGCUGUGGCUAGACUGCCUCUCUGGAUUCCUCGUCACUCAGCAGGGCAUCUCUGAGAGAAAUGCC [U46A A64G] here?
A: The self-cleavage was 0.18.

Q: Which self-cleavage does the source give for UACGUAGGUGGUUUUCCCCUGAUAGUGCUAAGGGGGCCUGGAAGUUUGGACUGGGCAGAGCUCAACACGGCGUGGCAAAGUGGCUGUGGCUAGACUUCCUCUCUGGAUUCCUCGUCACUCAGCAGGGCAUCUCUGAGAGAAAUGCC [A69G G97U] here?
A: The self-cleavage was 0.07.

Q: Which self-cleavage does the source give for UACGUAGGUGGUUUUCCCCUGAUAGUGCUAAGGGGGCCUGGAAGUUUGGACUGGGCAGAGCUCAACACAGCGUGGCAAAGUGGCUGUGGCUAGACUGCCUCUCUGGAUUCCUCGUCACUCAGCAGGACAUCUCUGGGAGAAAUGCC [G127A A136G] here?
A: The self-cleavage was 1.5.

Q: For UACGUAGGUGGUUUUCCCCUGAUAGUGCUAAGAGGGCCUGGAAGUUUGGGCUGGGCAGAGCUCAACACAGCGUGGCAAAGUGGCUGUGGCUAGACUGCCUCUCUGGAUUCCUCGUCACUCAGCAGGGCAUCUCUGAGAGAAAUGCC [G33A A50G], which self-cleavage is on record?
A: Its self-cleavage is 1.02.

Q: With UACGUAGGUGGUUUUCCCCUGAUAGUGCUAAGGGGGCCUGGAAGUUUGGACUGGGCAGAGCUCAACACAGCGUGGCAAAGUGGCUGUGGCUAGACUGCCUCUCUGGAUUCCUCGUCACUCAGCAGGGCAUCUCAGAGAGAUAUGCC [U134A A141U] as the variant, how does the self-cleavage read?
A: The self-cleavage was 1.12.

Q: For UACGUAGGUGGUUUUCCCCUGAUAGUGCUAAGGGGGCCUGGAAGUUUGGACUGGGCAGAGCUCAACACAGCGUGGCAAAGUGGCUGUGGCUUGACUGCCUCUCUGGAUUCCUCGUCACUCAGCAGAGCAUCUCUGAGAGAAAUGCC [A92U G126A], which self-cleavage is on record?
A: The self-cleavage was 0.41.

Q: Which self-cleavage does the source give for UACGUAGGUGGUUUUCCCCUGAUAGUGCUAAGGAGGCCUGGAAGUUUGGACUGGGCAGAGCUCAACACAGCGUGGCAAAGUGGCUGUGGCUAGACUGCCUCUCUGGAUUCCUCGUCACUCAGCAGGGCAUCUCUGAGAGGAAUGCC [G34A A140G] here?
A: Its self-cleavage is 0.5.

Q: Which self-cleavage does the source give for UACGCAGGUGGUUUUCCCCUGAUAGUGCUAAGGGGGCCUGGAAGUUUGGACUGGGCAGAGCUCAACACAGCGUGGCAAAGUGGCUGUGGCUAGACUGCCUCUCUGGAUUCCUCGCCACUCAGCAGGGCAUCUCUGAGAGAAAUGCC [U5C U115C] here?
A: The self-cleavage was 1.27.

Q: Which self-cleavage does the source give for UACGUGGGUGGUUUUCCCCUGAUAGUGCUAAGGGGGCCUGGAAGUUUGGACUGGGCAGAGCUCAACACAGCGUGGCAAAGUGGCUGUGGCUAGACUGCCUCUCUGGAUUCCUCGUCACUCAGCAGGGCACCUCUGAGAGAAAUGCC [A6G U130C] here?
A: The self-cleavage was 0.81.

Q: Which self-cleavage does the source give for UACGUAGGUGGUUUUCCCCUGAUAGUGCUAAGGGGGCCUGGAAGUUUGGACUGGGCAGAGCUCAACACAGCGUGGCAAAGUGGCUGUGGCUAGACUGCCUCUCUGGAUUCCUCGUCACUCACCAGGGCAUCUCUGAGAGAAACGCC [G122C U143C] here?
A: Its self-cleavage is 1.57.

Q: With UACGUAGGUGGUCUUCCCCUGAUAGUGCUAAGGGGGCCAGGAAGUUUGGACUGGGCAGAGCUCAACACAGCGUGGCAAAGUGGCUGUGGCUAGACUGCCUCUCUGGAUUCCUCGUCACUCAGCAGGGCAUCUCUGAGAGAAAUGCC [U13C U39A] as the variant, how does the self-cleavage read?
A: Its self-cleavage is 1.33.

Q: Which self-cleavage does the source give for UACGUAGGUGGUUUUCCCCUGAUAGUGCUAAGGGGGCCUGGAAGUGUGGACUGGGCAGAGCUCAACACAGCGUGGCAAAGUGGCUGUGGCUAGACUGCCUCUCUGGAUUCCUCGUCACUCAGCAGGGCAUCUCUGAGAGAAACGCC [U46G U143C] here?
A: The self-cleavage was 1.43.

Q: Which self-cleavage does the source give for UACGUAGGUGGUUUUCCCCUGAUAGUGCUAAGGGGGCCUGGGAGUUUGGACUGGGCAGAGCUCAACACAGCGUGGCAAAGUGGCUGUGGCUAGACUGCCUCUCUGGAUUCCUCGUCACUCAGCAGGGCGUCUCUGAGAGAAAUGCC [A42G A129G] here?
A: The self-cleavage was 1.68.

Q: For UACGUUGGUGGUUUUCCCCUGAUAGUGCUAAGGGGGCCUGGAAGUUUGGACUGGGCAGAGCUCAACACAGCGAGGCAAAGUGGCUGUGGCUAGACUGCCUCUCUGGAUUCCUCGUCACUCAGCAGGGCAUCUCUGAGAGAAAUGCC [A6U U73A], which self-cleavage is on record?
A: Its self-cleavage is 1.54.

Q: With UACGUAGGUGGUUUUCCCCUGAUAGUGCUAAGGGGGCCUGGAAGUUUGGACUGGGUAGAGCUCAACACGGCGUGGCAAAGUGGCUGUGGCUAGACUGCCUCUCUGGAUUCCUCGUCACUCAGCAGGGCAUCUCUGAGAGAAAUGCC [C56U A69G] as the variant, how does the self-cleavage read?
A: Its self-cleavage is 0.02.
